Consider three molecules from patent US6140052, “cMYC is regulated by Tcf-4” (The Johns Hopkins University, dated 1998).

Assay [1] concerns the target Myc-tagged hTcf-4 (epitope-tagged hTcf-4 in expression vector pCDNA) (human).
In assay [2] the target is T1, hTcf-4 (endogenous, in nuclear extracts or cells) (human).
T1 chain: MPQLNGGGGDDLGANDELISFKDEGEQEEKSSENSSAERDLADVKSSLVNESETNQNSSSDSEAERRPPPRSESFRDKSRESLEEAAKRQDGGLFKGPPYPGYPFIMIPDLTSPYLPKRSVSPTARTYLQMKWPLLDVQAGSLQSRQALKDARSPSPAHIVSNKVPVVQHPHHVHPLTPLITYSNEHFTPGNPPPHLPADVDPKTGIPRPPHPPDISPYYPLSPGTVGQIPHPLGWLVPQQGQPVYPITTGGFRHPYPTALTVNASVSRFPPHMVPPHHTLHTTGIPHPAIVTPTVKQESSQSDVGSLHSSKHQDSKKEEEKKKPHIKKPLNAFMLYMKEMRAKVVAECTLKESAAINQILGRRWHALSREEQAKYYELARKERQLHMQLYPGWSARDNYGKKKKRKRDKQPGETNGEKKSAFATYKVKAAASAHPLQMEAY
The experiment in a line: gel retardation of nuclear extracts of HT29-APC1 cells after 20 h Zn++ induction of APC. On the procedure:
Figure 2C: Figure 4: FIG. 4. Constitutive presence of β-catenin-hTcf-4 complexes in APC^{-/-} cells. Gel retardation assays were performed on nuclear extracts from the indicated cell lines before and after a 20-hour exposure to Zn^++. Samples in lanes 1, 4, 7, 10 were incubated under standard conditions. To the samples in lanes 2, 5, 8, 11, 0.25 μg, anti β-catenin was added. To the samples in lanes 3, 6, 9, 12, 0.25 μg of a control (human CD4) antibody was added. N.S., nonspecific band also observed with mutant (nonbinding) probe (lane Mt).
Gel retardation assays were performed as described elsewhere (7). Extracts were prepared from intact nuclei that were washed four times to avoid contamination with cytoplasmic β-catenin. As the optimal Tcf/Lef probe, we used a double-stranded 15-mer […] (SEQ ID NO: 12); the control probe was […] (SEQ ID NO:13). (All oligonudeotides were from Isogene, Holland). The β-catenin antibody was purchased from Transduction Laboratories (Lexington, Ky.). A typical binding reaction contained 3 μg nuclear protein, 0.1 ng radiolabeled probe, 100 ng of dIdC, in 25 μl of binding buffer (60 mm KCl, 1 mM EDTA, 1 mM DTT, 10% glycerol). Samples were incubated for 20 min at room temperature, antibody was added, and the samples incubated 20 min further.

In assay [1], “β-Cat S33Y (mutant β-catenin from SW48) (from UniProt P35222)” registered a CRT reporter activity in 293 cells cotransfected with a Tcf-4 expression vector of 6 fold.

As for “β-Cat Δ45 (mutant β-catenin from HCT116, deletion of Ser-45) (from UniProt P35222)”, the CRT reporter activity in 293 cells cotransfected with a Tcf-4 expression vector in assay [1] was 6 fold.

B1: β-catenin (endogenous, human colorectal cancer cell lines HT29, SW480) (other)
chain: ATQADLMELDMAMEPDRKAAVSHWQQQSYLDSGIHSGATTTAPSLSGKGNPEEEDVDTSQVLYEWEQGFSQSFTQEQVADIDGQYAMTRAQRVRAAMFPETLDEGMQIPSTQFDAAHPTNVQRLAEPSQMLKHAVVNLINYQDDAELATRAIPELTKLLNDEDQVVVNKAAVMVHQLSKKEASRHAIMRSPQMVSAIVRTMQNTNDVETARCTAGTLHNLSHHREGLLAIFKSGGIPALVKMLGSPVDSVLFYAITTLHNLLLHQEGAKMAVRLAGGLQKMVALLNKTNVKFLAITTDCLQILAYGNQESKLIILASGGPQALVNIMRTYTYEKLLWTTSRVLKVLSVCSSNKPAIVEAGGMQALGLHLTDPSQRLVQNCLWTLRNLSDAATKQEGMEGLLGTLVQLLGSDDINVVTCAAGILSNLTCNNYKNKMMVCQVGGIEALVRTVLRAGDREDITEPAICALRHLTSRHQEAEMAQNAVRLHYGLPVVVKLLHPPSHWPLIKATVGLIRNLALCPANHAPLREQGAIPRLVQLLVRAHQDTQRRTSMGGTQQQFVEGVRMEEIVEGCTGALHILARDVHNRIVIRGLNTIPLFVQLLYSPIENIQRVAAGVLCELAQDKEAAEAIEAEGATAPLTELLHSRNEGVATYAAAVLFRMSEDKPQDYKKRLSVELTSSLFRTEPMAWNETADLGLDIGAQGEPLGYRQDDPSYRSFHSGGYGQDALGMDPMMEHEMGGHHPGADYPVDGLPDLGHAQDLMDGLPPGDSNQLAWFDTDL
In the case of B1, in assay [2], the “decrease of the complex relative to uncomplexed hTcf-4 after Zn++ induction of APC” value came out at 6 fold.
